Experimental data from article PMC10469072.

Molecular target: CD22 (recombinant, histidine-tagged; Thermo Fisher A42609) (human, UniProt P20273 20-687)
Assay: His-bead pull-down with qRT-PCR

CD22 (recombinant, histidine-tagged; Thermo Fisher A42609), sequence (P20273 20-687, one chain of several): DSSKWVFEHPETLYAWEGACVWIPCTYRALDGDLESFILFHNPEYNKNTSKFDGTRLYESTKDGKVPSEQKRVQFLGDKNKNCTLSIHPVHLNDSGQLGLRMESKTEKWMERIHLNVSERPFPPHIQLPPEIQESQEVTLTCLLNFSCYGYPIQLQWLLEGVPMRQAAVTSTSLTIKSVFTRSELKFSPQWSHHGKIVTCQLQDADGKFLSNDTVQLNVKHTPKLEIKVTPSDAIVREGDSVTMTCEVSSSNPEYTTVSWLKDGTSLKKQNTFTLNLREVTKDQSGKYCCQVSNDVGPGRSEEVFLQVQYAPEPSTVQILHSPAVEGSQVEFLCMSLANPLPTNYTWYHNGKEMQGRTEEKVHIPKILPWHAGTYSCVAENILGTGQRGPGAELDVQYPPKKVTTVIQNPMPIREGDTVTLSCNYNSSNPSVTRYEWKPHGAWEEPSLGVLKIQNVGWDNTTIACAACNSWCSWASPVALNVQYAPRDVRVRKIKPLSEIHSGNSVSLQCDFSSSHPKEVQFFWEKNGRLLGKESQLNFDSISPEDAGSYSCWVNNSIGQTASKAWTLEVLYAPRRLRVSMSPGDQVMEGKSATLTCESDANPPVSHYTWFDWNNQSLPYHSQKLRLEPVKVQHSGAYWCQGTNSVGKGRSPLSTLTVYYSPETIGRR

B1: B-ALL1 (structured_RNA)
RNA: GGGAGGACGAUGCGGGCCAUUCGUCUUUUCGUCCCCAGACGACUCGCCCGA
modifications: 2'-fluoro pyrimidines (2'F-C, 2'F-U), unmodified purines
- binding result: binds
